{
  "source": "paper PMC4865239",
  "key": {"[1]": {"target": "AfaE-III adhesin of uropathogenic E. coli strain A30 (E. coli AfaE-III) (E. coli (uropathogenic strain A30))"}, "[2]": {"target": "CEACAM-binding Opa protein (OpaCEA) from N. gonorrhoeae, expressed in E. coli (E. coli OpaCEA) (Neisseria gonorrhoeae)"}},
  "data": [
    {"substance": "GFP-tagged amino-terminal IgV-like domain of human CEA (CEA-N) (domain or fragment)", "values": [
      {"measurement": "bacteria recovered from the urogenital tract 24 h after vaginal infection, CEAtg mice (human CEA on mucosal surfaces) against wildtype mice", "setting": "[1]", "result": "> 80", "unit": "fold"},
      {"measurement": "bacteria recovered from the urogenital tract 24 h after vaginal infection, CEAtg mice (human CEA on mucosal surfaces) against wildtype mice", "setting": "[2]", "result": "> 30", "unit": "fold"}
    ]}
  ]
}
